Reference: patent publication US20250152663A1, “COMPOSITION FOR PREVENTION OR TREATMENT OF DRY EYE DISEASE COMPRISING HAPLN1” (HAPLNSCIENCE INC., priority 2021, published 2025)
Entries after “also recorded” stand apart in the source; their conditions may differ.

Tests used:
[1] = test system: human corneal epithelial cells; assay: CCK-8 cell viability under high osmotic pressure (dry eye cell model); format: cell-based; details: HCEC, 450 mOsM
Description: In most dry eye diseases, tear decreases in the aqueous layer in an eyeball due to lacrimal hyposecretion or hyperevaporation of tear. In this case, osmotic pressure increases because water decreases while concentrations of proteins, lipids, carbohydrates, etc. contained in tear are constantly maintained. Based on this principle, in cellular level studies, NaCl is added to a cell culture medium to control the osmotic pressure, establish a dry eye disease model, and evaluate efficacy of a drug. Thus, in the present embodiment, by using a case with an osmotic pressure of 314 mOsM as a normal control and a case with a relatively high osmotic pressure of 450 mOsM as a dry eye disease model, effects of HAPLN1 protein on the relief of dry eye disease in human corneal epithelial cells under the high osmotic pressure conditions were verified. This is related to cell viability of human corneal epithelial cells.
In this experiments, a cell counting kit-8 (CCK-8), which allows a sensitive colorimetric assay used to measure cell viability and cytotoxicity, was used. That is, addition of WST-8, which is a highly water-soluble tetrazolium salt, to cells […] to produce an orange-colored formazan dye in the cells. Because the amount of the dye is related to the number of viable cells, a larger amount of the dye indicates more viable cells. […]

IL-1β in lacrimal glands = assay: IL-1β immunohistochemistry in lacrimal gland, mouse dry eye model; format: in vivo, C57BL/6; details: 5 μg/ml or more of HAPLN1, after 16 days of drug treatment
Description: In this example, expression of IL-1B in lacrimal glands was identified by immunohistochemistry in order to identify an in vivo anti-inflammatory effect of the HAPLN1 protein-containing composition of the present disclosure. To this end, on the 2nd day after 16 days of drug treatment, eyes were enucleated and paraffin blocked. IHC was performed by using a prepared slide, and expression (brown) of IL-1β was identified by using an Anti-IL1β antibody (FIG. 11A). FIG. 11B is a graph illustrating quantified expression levels of IL-1β obtained in FIG. 11A.

mouse dry eye model = assay: Corneal fluorescein score, low-humidity+scopolamine-induced dry eye disease model; format: in vivo, C57BL/6
Description: Corneal fluorescein score assay and tear volume assay were respectively performed on eyeballs of mice treated with the compositions of Preparation Examples 1, 2, and 3 prepared in Example 7 above by using a low-humidity+scopolamine-induced dry eye disease (DED) model.
When obtaining experimental animals, inspection and quarantines were carried out by referring the microbiological monitoring report of a test system provided by the supplier and observing the appearance of the experimental animals. Animals with no apparent abnormalities were brought into a vivarium and acclimated for 2 weeks in an animal room where tests were conducted. During the quarantine and acclimation period of 2 weeks, health condition and suitability for the experiment were evaluated, and then healthy animals were selected. By using only the animals with no abnormalities during the quarantine and acclimation period, dry eye disease was induced and the degree of corneal damage was evaluated by corneal fluorescein staining, and the test groups were classified by a Z-array method according to clinical scores. A dry eye disease test group consisted of eyeballs with a corneal fluorescein stain score of 7 to 15, and a sham group (normal) consisted of eyeballs not having a corneal fluorescein stains core of 5 or more. […]

B1: hyaluronan and proteoglycan link protein 1 (HAPLN1) (protein, listed as Homo sapiens)
chain: MKSLLLLVLISICWADHLSDNYTLDHDRAIHIQAENGPHLLVEAEQAKVFSHRGGNVTLPCKFYRDPTAFGSGIHKIRIKWTKLTSDYLKEVDVFVSMGYHKKTYGGYQGRVFLKGGSDSDASLVITDLTLEDYGRYKCEVIEGLEDDTVVVALDLQGVVFPYFPRLGRYNLNFHEAQQACLDQDAVIASFDQLYDAWRGGLDWCNAGWLSDGSVQYPITKPREPCGGQNTVPGVRNYGFWDKDKSRYDVFCFTSNFNGRFYYLIHPTKLTYDEAVQACLNDGAQIAKVGQIFAAWKILGYDRCDAGWLADGSVRYPISRPRRRCSPTEAAVRFVGFPDKKHKLYGVYCFRAYN
cell viability, CCK-8 absorbances (450 nm) ([1]; 5 to 100 ng/ml, incubated 24 hours or 48 hours, compared with normal cell group (314 mOsM)): not less than or similar to that of a normal cell group; also recorded: increased | cell viability (CCK-8) compared with control drug Cyclosporin A ([1]; regardless of concentration, vs 0.1 to 0.5 μM Cyclosporin A): higher than 0.1 to 0.5 μM of Cyclosporin A | expression of IL-1β in lacrimal gland (IL-1β in lacrimal glands): decreased to a level similar to that of Sham control | CFS level compared with Cyclosporine A (mouse dry eye model; after 11 days): reduced the CFS level more than Cyclosporine A | CFS level (mouse dry eye model; eye drop 0.5, 5, 50 μg/ml, 5 μL b.i.d., regardless of the concentration): consistently decreased
